Columns and labels:
Assay in all cases: cell-based or functional assay
[1] = molecular target: SARS-CoV-2 LB.1 spike (S) protein (SARS-CoV-2)
[2] = molecular target: SARS-CoV-2 KP.3 spike (S) protein (SARS-CoV-2)
[3] = molecular target: SARS-CoV-2 KP.3.1.1 spike (S) protein (SARS-CoV-2)
[4] = molecular target: SARS-CoV-2 KP.2 spike (S) protein (SARS-CoV-2)
[5] = molecular target: SARS-CoV-2 KP.2.3 spike (S) protein (SARS-CoV-2)
[6] = molecular target: SARS-CoV-2 B.1.1.7 spike (S) protein (SARS-CoV-2)
[7] = molecular target: SARS-CoV-2 B.1.617.2 spike (S) protein (SARS-CoV-2)
[8] = molecular target: SARS-CoV-2 JN.1 spike (S) protein (SARS-CoV-2)
[9] = molecular target: SARS-CoV-2 XBB.1.5 spike (S) protein (SARS-CoV-2)
[10] = molecular target: SARS-CoV-2 JF.1 spike (S) protein (SARS-CoV-2)
[11] = molecular target: SARS-CoV-2 B.1.429 spike (S) protein (SARS-CoV-2)
[12] = molecular target: SARS-CoV-2 spike (S) protein, B.1.351 (SARS-CoV-2)
[13] = molecular target: SARS-CoV-2 EG.5.1 spike (S) protein (SARS-CoV-2)
[14] = molecular target: SARS-CoV-2 B.1.617.1 spike (S) protein (SARS-CoV-2)
[15] = molecular target: SARS-CoV-2 B.1.526 spike (S) protein (SARS-CoV-2)
[16] = molecular target: SARS-CoV-2 XBB.2.3.2 spike (S) protein (SARS-CoV-2)
[17] = molecular target: SARS-CoV-2 CH.1.1 spike (S) protein (SARS-CoV-2)
[18] = molecular target: SARS-CoV-2 B.1.621 spike (S) protein (SARS-CoV-2)
[19] = molecular target: SARS-CoV-2 P.2 spike (S) protein (SARS-CoV-2)
[20] = molecular target: SARS-CoV-2 HK.3 spike (S) protein (SARS-CoV-2)
[21] = molecular target: SARS-CoV-2 P.1 spike (S) protein (SARS-CoV-2)
[22] = molecular target: SARS-CoV-2 FL.1.5.1 spike (S) protein (SARS-CoV-2)
[23] = molecular target: SARS-CoV-2 B.1.525 spike (S) protein (SARS-CoV-2)
[24] = molecular target: SARS-CoV-2 B.1.351 spike (S) protein (SARS-CoV-2)
[25] = molecular target: SARS-CoV-2 HV.1 spike (S) protein (SARS-CoV-2)
[26] = molecular target: SARS-CoV-2 XBB.1.16.6 spike (S) protein (SARS-CoV-2)
[27] = molecular target: SARS-CoV-2 spike (S) protein, B.1.617.2 (SARS-CoV-2)
[28] = molecular target: SARS-CoV-2 XBB spike (S) protein (SARS-CoV-2)
[29] = molecular target: SARS-CoV-2 JD.1.1 spike (S) protein (SARS-CoV-2)
[30] = molecular target: SARS-CoV-2 B.1.427 spike (S) protein (SARS-CoV-2)
[31] = molecular target: SARS-CoV-2 BA.2.86 spike (S) protein (SARS-CoV-2)
[32] = molecular target: SARS-CoV-2 BA.4/5 spike (S) protein (SARS-CoV-2)
[33] = molecular target: SARS-CoV-2 BA.1 spike (S) protein (SARS-CoV-2)
[34] = molecular target: SARS-CoV-2 spike (S) protein, Omicron sublineage BA.4/5 (SARS-CoV-2)
[35] = molecular target: SARS-CoV-2 spike (S) protein, Omicron sublineage XBB.1.5 (SARS-CoV-2)
[36] = molecular target: SARS-CoV-2 spike (S) protein, Omicron sublineage BQ.1.1 (SARS-CoV-2)
[37] = molecular target: SARS-CoV-2 Omicron sublineage CH.1.1 spike (S) protein (SARS-CoV-2)
[38] = molecular target: SARS-CoV-2 spike (S) protein, Omicron sublineage BA.2.75.2 (SARS-CoV-2)
[39] = molecular target: SARS-CoV-2 spike (S) protein, Omicron sublineage XBB (SARS-CoV-2)
[40] = molecular target: SARS-CoV-2 Omicron sublineage BF.7 spike (S) protein (SARS-CoV-2)

ADG20 (antibody)
pseudovirus neutralization IC50 [1]: > 67 nM | pseudovirus neutralization IC80 [1]: > 67 nM | pseudovirus neutralization IC50 [2]: > 67 nM | pseudovirus neutralization IC80 [2]: > 67 nM | pseudovirus neutralization IC50 [3]: > 67 nM | pseudovirus neutralization IC80 [3]: > 67 nM | pseudovirus neutralization IC50 [4]: > 67 nM | pseudovirus neutralization IC80 [4]: > 67 nM | pseudovirus neutralization IC50 [5]: > 67 nM | pseudovirus neutralization IC80 [5]: > 67 nM

AZD3152 (antibody)
pseudovirus neutralization IC50 [6]: 0.093 µg/mL | pseudovirus neutralization IC50 [7]: 0.09 µg/mL | pseudovirus neutralization IC50 [8]: 0.766 µg/mL | pseudovirus neutralization IC50 [9]: 0.016 µg/mL | pseudovirus neutralization IC50 [10]: > 10 µg/mL | pseudovirus neutralization IC50 [11]: 0.082 µg/mL | IC50, pseudotyped neutralization potency [12]: 0.023 nM | IC80, pseudotyped neutralization potency [12]: 0.041 nM | pseudotyped neutralization potency IC50 [13]: > 66.7 nM | pseudotyped neutralization potency IC80 [13]: > 66.7 nM | pseudovirus neutralization IC50 [13]: > 10 µg/mL | pseudovirus neutralization IC50 [14]: 0.041 µg/mL | pseudovirus neutralization IC50 [15]: 0.049 µg/mL | pseudotyped neutralization potency IC50 [16]: 0.0806 nM | pseudotyped neutralization potency IC80 [16]: 0.488 nM | pseudovirus neutralization IC50 [16]: 0.025 µg/mL | pseudovirus neutralization IC50 [17]: 0.045 µg/mL | pseudovirus neutralization IC50 [18]: 0.04 µg/mL | pseudovirus neutralization IC50 [19]: 0.02 µg/mL | pseudovirus neutralization IC50 [20]: > 10 µg/mL | pseudovirus neutralization IC50 [21]: 0.047 µg/mL | pseudotyped neutralization potency IC50 [22]: > 66.7 nM | pseudotyped neutralization potency IC80 [22]: > 66.7 nM | pseudovirus neutralization IC50 [22]: > 10 µg/mL | pseudovirus neutralization IC50 [23]: 0.1 µg/mL | pseudovirus neutralization IC50 [24]: 0.024 µg/mL | pseudovirus neutralization IC50 [25]: > 10 µg/mL | pseudotyped neutralization potency IC50 [26]: > 66.7 nM | pseudotyped neutralization potency IC80 [26]: > 66.7 nM | pseudovirus neutralization IC50 [26]: > 10 µg/mL | IC50, pseudotyped neutralization potency [27]: 0.281 nM | IC80, pseudotyped neutralization potency [27]: 0.518 nM | pseudovirus neutralization IC50 [28]: 0.011 µg/mL | pseudovirus neutralization IC50 [29]: > 10 µg/mL | pseudovirus neutralization IC50 [30]: 0.09 µg/mL | pseudotyped neutralization potency IC50 [31]: 1.8 nM | pseudotyped neutralization potency IC80 [31]: 5.4 nM | pseudovirus neutralization IC50 [31]: 0.053 µg/mL | pseudovirus neutralization IC50 [32]: 0.03 µg/mL | pseudovirus neutralization IC50 [33]: 0.012 µg/mL

LY1404 (antibody)
pseudotyped neutralization potency IC50 [34]: 0.01 nM | pseudotyped neutralization potency IC80 [34]: 0.02 nM | pseudotyped neutralization potency IC50 [35]: > 67 nM | pseudotyped neutralization potency IC80 [35]: > 67 nM | pseudotyped neutralization potency IC50 [36]: > 67 nM | pseudotyped neutralization potency IC80 [36]: > 67 nM | pseudotyped neutralization potency IC50 [37]: > 67 nM | pseudotyped neutralization potency IC80 [37]: > 67 nM | pseudotyped neutralization potency IC50 [38]: 0.04 nM | pseudotyped neutralization potency IC80 [38]: 0.14 nM | pseudotyped neutralization potency IC50 [39]: > 67 nM | pseudotyped neutralization potency IC80 [39]: > 67 nM | pseudotyped neutralization potency IC50 [40]: 0.02 nM | pseudotyped neutralization potency IC80 [40]: 0.18 nM
